Here are results for 3 substances from article PMC5563082.

One may read the stoichiometry N as a count of units in the complex or per binding partner. Broadly, the Kd is the constant that tells how readily two partners part at equilibrium.

Assay [1] addresses human NL1 cholinesterase domain lacking splice inserts (hNL1(–A–B)_(ECTO); Gln46-Asp635), crystallisation sample (human). Kind of assay: crystal structure; Endo F1-treated hNL1(–A–B)_(ECTO)–cMDGA1_(ECTO) complex, mixed 1:1.25, 0.1M Na.HEPES pH 7.0, 7.5% PEG8000; 3.30 Å.
In assay [2] the target is human NL1(–A–B)_(ECTO) (Gln46-Asp635), soluble protein for ITC and as SPR analyte (human). Kind of assay: ITC; competition: β-NRX1_(LNS6)(–4) titrated into NL1_(ECTO) with an equimolar amount of MDGA1_(ECTO) in the cell; HBS-C, 295 K; apparent KD. In general terms: Isothermal titration calorimetry measures the heat released or taken up as one component is titrated into another.

Assay [3] has the same target. The assay is described as follows: ITC; β-NRX1_(LNS6)(–4) in the syringe titrated into NL1_(ECTO) alone in the cell; HBS-C (10 mM HEPES pH 7.50, 150 mM NaCl, 3 mM CaCl2), 295 K; one binding site model.
The target in assay [4] is human NL3(–A)_(ECTO) (Gln38-Asp636), immobilised for SPR (human) (UniProt Q9NZ94). The assay is described as follows: SPR; biotinylated NL_(ECTO)-Avitag variants captured from dialysed conditioned medium on streptavidin CM5 chip (500 RU; 550 RU for the ΔSite series; 1000 RU for NL3 and NL3 Arg451Cys in the R451C series); β-NRX1_(LNS6)(±4), MDGA1_(ECTO), MDGA2_(ECTO) injected, 15 concentrations, two-fold series from 50 μM; TBS-CTB (10 mM Tris pH 7.4, 150 mM NaCl, 3 mM CaCl2, 0.005% Tween-20, 1.0 g/L BSA); equilibrium analysis, 1:1 Langmuir model. A general note: Surface plasmon resonance follows binding to a sensor surface in real time, without labels.
human NL3(–A)_(ECTO) (Gln38-Asp636), immobilised for SPR (human), sequence (Q9NZ94 other isoform, or with tags, fused parts or gaps): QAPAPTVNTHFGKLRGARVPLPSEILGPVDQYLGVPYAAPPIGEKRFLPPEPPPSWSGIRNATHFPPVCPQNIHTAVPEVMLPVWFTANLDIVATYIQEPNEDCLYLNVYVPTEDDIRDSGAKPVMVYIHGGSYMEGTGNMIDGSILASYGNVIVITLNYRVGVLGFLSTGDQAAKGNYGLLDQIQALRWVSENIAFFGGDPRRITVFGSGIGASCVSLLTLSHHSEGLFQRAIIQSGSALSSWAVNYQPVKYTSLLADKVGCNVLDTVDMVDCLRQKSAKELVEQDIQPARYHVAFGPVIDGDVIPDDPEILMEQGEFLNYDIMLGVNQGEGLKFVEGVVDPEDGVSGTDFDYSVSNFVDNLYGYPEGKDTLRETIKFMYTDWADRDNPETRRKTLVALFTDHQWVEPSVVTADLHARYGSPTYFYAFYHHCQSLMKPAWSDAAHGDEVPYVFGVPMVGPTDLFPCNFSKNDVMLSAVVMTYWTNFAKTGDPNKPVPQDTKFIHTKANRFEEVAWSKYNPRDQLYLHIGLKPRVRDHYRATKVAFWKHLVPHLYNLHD

In assay [5] the target is human NL1(–A–B)_(ECTO), biotinylated and immobilised for SPR (human). The assay is described as above.
Assay [6] has as its target human NL1(–A+B)_(ECTO), immobilised for SPR (human). The description is as above.

Substance “human NL1 cholinesterase domain lacking splice inserts (hNL1(–A–B)_(ECTO); Gln46-Asp635), crystallisation sample (domain or fragment)” had a stoichiometry N in assay [1] of 2.
For “human β-neurexin-1 LNS6 domain lacking SS4 (β-NRX1_(LNS6)(–4); His85-Val265) (domain or fragment)”, the K (D,app) with an equimolar amount of MDGA1 (ECTO) in assay [2] worked out at 4.76 µM. Moreover, the Kd in assay [3] was found to be 0.388 µM; in assay [4], 8.5 µM; in assay [5], 0.718 µM. In addition, the fold weaker than with NL1(–A–B) (ECTO) in assay [6] was under 2 fold.
As to “human β-neurexin-1 LNS6 domain with SS4 (β-NRX1_(LNS6)(+4)) (domain or fragment)”, in assay [6], the fold weaker than with NL1(–A–B) (ECTO) was under 2 fold.
